Laboratory results reported in publication PMC3098719 (Molecular cell, 2008).
Residue numbers refer to the chain shown, from its start. Names may count otherwise. Each block holds one binder with its values, some of them ahead of it.

Columns and labels:
[1] = biological target: T1, Kae1 (residues 1-328 of Methanococcus jannaschii MJ1130), untagged (Methanococcus jannaschii, UniProt Q58530 1-328); experiment: pull-down
T1 sequence (looked up): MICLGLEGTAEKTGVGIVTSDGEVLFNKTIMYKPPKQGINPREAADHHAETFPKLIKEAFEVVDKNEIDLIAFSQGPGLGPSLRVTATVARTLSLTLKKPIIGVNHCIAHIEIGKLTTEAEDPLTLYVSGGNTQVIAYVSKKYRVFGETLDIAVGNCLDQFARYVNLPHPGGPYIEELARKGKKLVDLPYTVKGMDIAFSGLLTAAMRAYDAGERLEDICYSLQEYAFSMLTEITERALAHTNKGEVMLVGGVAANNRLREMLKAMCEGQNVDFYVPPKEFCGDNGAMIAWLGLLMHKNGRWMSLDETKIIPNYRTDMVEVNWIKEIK

[2] = biological target: the molecule itself; experiment: SEC
[3] = biological target: T2, GST-Kae1 E233R (M. jannaschii) (Methanococcus jannaschii, UniProt Q58530 1-328, E233R); experiment: pull-down
T2 sequence (looked up): T1 sequence (looked up) with E233R

[4] = biological target: T3, GST-Kae1 E236K (M. jannaschii) (Methanococcus jannaschii, UniProt Q58530 1-328, E236K); experiment: pull-down
T3 sequence (looked up): T1 sequence (looked up) with E236K

[5] = biological target: T4, GST-Kae1 (residues 1-328 of Methanococcus jannaschii MJ1130) (Methanococcus jannaschii, UniProt Q58530 1-328); experiment: pull-down
T4 sequence (looked up): T1 sequence (looked up)

[6] = biological target: MJ1130 (Kae1-Bud32 fusion of Methanococcus jannaschii) as used for the complex with Cgi121 (Methanococcus jannaschii) (UniProt Q58530); experiment: crystal structure
[7] = biological target: T5, Bud32 K365E (M. jannaschii) (Methanococcus jannaschii, UniProt Q58530 328-535, K365E); experiment: pull-down
T5 sequence (looked up): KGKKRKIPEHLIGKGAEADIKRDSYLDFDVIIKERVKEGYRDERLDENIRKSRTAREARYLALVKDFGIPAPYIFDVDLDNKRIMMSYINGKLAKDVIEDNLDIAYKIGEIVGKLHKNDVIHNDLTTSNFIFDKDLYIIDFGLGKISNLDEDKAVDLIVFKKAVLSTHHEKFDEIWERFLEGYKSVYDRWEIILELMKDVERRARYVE

[8] = biological target: T6, Bud32 R380E (M. jannaschii) (Methanococcus jannaschii, UniProt Q58530 328-535, R380E); experiment: pull-down
T6 sequence (looked up): T5 sequence (looked up) with E38K, R53E

[9] = biological target: T7, Bud32 V486Y (M. jannaschii) (Methanococcus jannaschii, UniProt Q58530 328-535, V486Y); experiment: pull-down
T7 sequence (looked up): T5 sequence (looked up) with E38K, V159Y

[10] = biological target: T8, Bud32 K489E (M. jannaschii) (Methanococcus jannaschii, UniProt Q58530 328-535, K489E); experiment: pull-down
T8 sequence (looked up): T5 sequence (looked up) with E38K, K162E

[11] = biological target: T9, Bud32 (residues 328-535 of Methanococcus jannaschii MJ1130), untagged (Methanococcus jannaschii, UniProt Q58530 328-535); experiment: pull-down
T9 sequence (looked up): T5 sequence (looked up) with E38K

binding result [1]: binds
B1: GST-Pcc1 (Pyrococcus furiosus PF2011) (natural protein, UniProt Q8TZI1 1-82, looked up)
chain: MKAKRVQAKIEIEFPSEDVAKVVYEAVLYEHLSVPYRRSEIDFKLEGKKIILDIKATDSSALRGTVNSYLRWIKAAIDVIEV

stoichiometry N (Cgi121 per MJ1130) [6]: 1
binding result [7]: binds
binding result [8]: binds
binding result [9]: binds
binding result [10]: binds
B7: GST-Cgi121 (Methanococcus jannaschii MJ0187) (natural protein, UniProt Q57646 1-145, looked up)
chain: MIIRGIRGARINNEIFNLGLKFQILNADVVATKKHVLHAINQAKTKKPIAKSFWMEILVRASGQRQIHEAIKIIGAKDGNVCLICEDEETFRKIYELIGGEIDDSVLEINEDKERLIREIFKIRGFGNVVERVLEKIALIELKKE

binding result [11]: binds
B8: GST-Cgi121 L134E (M. jannaschii) (natural protein, Methanococcus jannaschii, UniProt Q57646 1-145, looked up)
chain: B7 chain with L134E

binding result [11]: binds
B9: GST-Cgi121 L139R (M. jannaschii) (natural protein, Methanococcus jannaschii, UniProt Q57646 1-145, looked up)
chain: B7 chain with L139R

binding result [11]: binds
B10: GST-Cgi121 A138R (M. jannaschii) (natural protein, Methanococcus jannaschii, UniProt Q57646 1-145, looked up)
chain: B7 chain with A138R

More lines, now with the values behind:

B2: Pcc1 A75Y (P. furiosus) (natural protein, Pyrococcus furiosus, UniProt Q8TZI1 1-82, looked up)
chain: B1 chain with A75Y
stoichiometry N [2]: 2

B3: Pcc1 A75Y/V79R (P. furiosus) (natural protein, Pyrococcus furiosus, UniProt Q8TZI1 1-82, looked up)
chain: B1 chain with A75Y, V79R
stoichiometry N [2]: 2

B4: Pcc1 V79R (P. furiosus) (natural protein, Pyrococcus furiosus, UniProt Q8TZI1 1-82, looked up)
chain: B1 chain with V79R
stoichiometry N [2]: 2

B5: Pcc1 E30R (P. furiosus) (natural protein, Pyrococcus furiosus, UniProt Q8TZI1 1-82, looked up)
chain: B1 chain with E30R
stoichiometry N [2]: 2

B6: Pcc1 (Pyrococcus furiosus PF2011), untagged (natural protein, UniProt Q8TZI1 1-82, looked up)
chain: B1 chain
binding result [3]: binds
binding result [4]: binds
binding result [5]: binds
